Consider 19 sequences from the DeepSol protein solubility set.

The data set is described as follows: soluble on expression in E. coli; label from the status in PepcDB or PDB records.
“MSLIQEYVPGKQVTLAHIIASPNKEIYTKLGLPEGTSNALGILTITPSEAAIIAVDIATKSGDIQIGFIDRFSGSVVISGDVSSVEAALQAVIEGLQQILNFSVTCKITRTEGGSHHHHHH”: the “soluble on expression in E. coli” value is recorded as “soluble”.

On to “MSLISVIMPVYNCEKYLEESIESILKQTYRDFEFIIVNDGSNDKSIDIINKYANDDNRIVVVSRDNNMGMVYSLNEGIDRAKGSYVARMDADDIALPERFERQIEYLNKNKDVDILACKVEAFGDVSREQKLEREHWYNVDLNNSESIESLFLENCYIAHPSVMMKMSVLKALGGYNLNYKRTEDYNLWLRAIAKGYKIAMLEEKLMKIRLHNDSKIHRDAEGFSSIRDIIQSRLEYVKEKLKLKDFSYVIWGASNGGKIAYEKIKEVFPNAKLNGYIDKFKTGKFEGVDIFYPEDLSKMKVDYVFIATLPGCKEAKGILTKNNFVPIKDFLVLCEGHHHHHH”, for which the “soluble on expression in E. coli” value is “soluble”.

As for “MSLIVLGLEGTAHTISCGIIDESRILAMESSMYRPKTGGIRPLDAAVHHSEVIDTVISRALEKAKISIHDIDLIGFSMGPGLAPSLRVTATAARTISVLTGKPIIGVNHPLGHIEIGRRVTGAIDPVMLYVSGGNTQVIAHVNGRYRVLGETLDIGIGNMIDKFAREAGIPFPGGPEIEKLAMKGTKLLDLPYSVKGMDTAFSGILTAALQYLKTGQAIEDISYSIQETAFAMLVEVLERALYVSGKDEILMAGGVALNRRLRDMVTNMAREAGIRSYLTDREYCMDNGIMIAQAALLMYKSGVRMSVEETAVNPRFRIDEVDAPWITDASRKDYGKAGAESRIEEVSFHGRPAIRKVRISKSYRNSDLDKKIRYERMRNEFTILRKLKEAGVNSPVVYDFDPFSMSITMQKIPGRMMSAELNEGRTDFLNELGIMIAKMHRAGIAHGDLTVNNIIVNDSVFIIDPSMGKVNAEIEDMAVDIYALEDSIKGLGLDSGSVIGQMLKSYRNNFNLADDVLETVSAIRRRHRYVEGHHHHHH”, the “soluble on expression in E. coli” value is given as “not soluble”.

On to “MSLIYFFMVDAVELSRKYEGKIEIYPKVPITSYNDFALIYTPGVAEVSKAIYKDPDKSFELTSRWNTIAVVTDGTRVLGLGNIGPTAAMPVMEGKSLLFKYLGGVDAIPLPINVKSADEFTNVVKALETSFGGINLEDIESPKCFYILEKLQSMLNIPVWHDDQQGTAAAILAGLINAMILTNKDPKESKVVFYGAGASNIAAARILAKYGFKYENIVMIDSKGPLYADREDVDHLMLHHKWKYELAIKTNKWEAKEIKDAFSGADAVVAASTPGPNVIKKEWISLMNKEAIVFALANPVPEIWPQDAKEAGAKIVATGRSDFPNQVNNSLIFPAIFRGVLDSRAKAITDEMTIAASEALAKYARDRGINENYIIPRMDEWEAFYEEAAAVASKAVELGLARVKKSREEFREIAKERIIRARKIMNLVISTWSPEGHHHHHH”, for which the “soluble on expression in E. coli” value is reported as “not soluble”.

Consider “MSLIYLRKANERGHANHGWLDSWHTFSFANYYDPNFMGFSALRVINDDVIEAGQGFGTHPHKDMEILTYVLEGTVEHQDSMGNKEQVPAGEFQIMSAGTGIRHSEYNPSSTERLHLYQIWIMPEENGITPRYEQRRFDAVQGKQLVLSPDARDGSLKVHQDMELYRWALLKDEQSVHQIAAERRVWIQVVKGNVTINGVKASTSDGLAIWDEQAISIHADSDSEVLLFDLPPVEGGSHHHHHH”, for which the “soluble on expression in E. coli” value is “soluble”.

Turning to “MSLKAEFLTPVVTIFDEEGNLDKEGNKKVYDHLIDGGVDGLVIMGSTGEFFNMSMDMQKELIDLVTSHVNKRVKVFIGTSRMCINESIELSNYAHNSGADGVMIISPYYFSLDDDSIELFYSEIAKNTEAEIYLYNYPDRTGYDLSPELTLRLARKHKNIVGYKDTVTLMGHTRDLINTMKIEFPEFKVYSGYDENFIHNLMSGGAGCIGGLSNLIPEVCSKWAEAYNNRDMEKVIEIQKYINKAMDFYLITNPFIPAMKKAMNIRGLQISDYMTAPFVKPNEKQVCEIKKLMNELNIEGHHHHHH”, the “soluble on expression in E. coli” value is recorded as “soluble”.

Consider “MSLKAIAKLRDHCIVCGYGRIGSVVAKELMEEGVALVVIENDPAMIEALETEGILHLAGDATNDELLQAAGIERARALVAALSLDSANVYVVLSAHQINPSMTIVARASEPSHIGKLKLAGADRVFLPHHLGGLRMAQSILRPTVTSFIELAHTRSDLSIQMEELEIGDDSVLVGKTLIESGIRPQYNLIIIGVKRPDGTMHFNPESTYTLQARDTLIAVGFPENFKQFQEILEGHHHHHH”, for which the “soluble on expression in E. coli” value is recorded as “soluble”.

Consider “MSLKAIGFEQPFKLSDGNLFKTFNLDIPEPKVHEILVKIQSISVNPVDTKQRLMDVSKAPRVLGFDAIGVVESVGNEVTMFNQGDIVYYSGSPDQNGSNAEYQLINERLVAKAPKNISAEQAVSLPLTGITAYETLFDVFGISRNRNENEGKTLLIINGAGGVGSIATQIAKAYGLRVITTASRNETIEWTKKMGADIVLNHKESLLNQFKTQGIELVDYVFCTFNTDMYYDDMIQLVKPRGHIATIVAFENDQDLNALKPKSLSFSHEFMFARPLNQTDDMIKHHEYLEDITNKVEQNIYQPTTTKVIEGLTTENIYQAHQILESNTMIGKLVINLNEGHHHHHH”, for which the “soluble on expression in E. coli” value is listed as “soluble”.

Take “MSLKAIQFDLSIPKYALSKAMGKMNSSLYVESPFSCLQLRDVEKPALPNDHWVEIKVKYGGICGSDLNLIFLNDSPATSPFVSFPFTLGHEMVGTISKARKSVTNLQVGQRVVIDPLLSCEVRGITPVCSECANGNYNLCHHMNDGDIAPGLLTGTCKDTGGSWGRYLVAHQSQVISLPSSVDDDNGVLVEPFACALHAVLQNRPKPSDTVFVIGSGVIGICVIAAIRALEIPCKIVTLAKHPFQAELAKQFGADEIVFLSRKRDYVTAVAESFNANVLHPVFGEPIVHGGADIVYECVGNRKSLHDSLRFARKGGKVVLIGLASFIDNLDMTMIWLNELEVKGSFTYGMEDWQGGKKRTLQIAVDLIADGKVDLSPLITHRFPLEAYREALATAANKKKGQTMKVVFEEGHHHHHH”: the “soluble on expression in E. coli” value is “not soluble”.

On to “MSLKALGLSKSTYYHWKHYQTSRHDKQDTILKSQIFEIWKNNYKAYGYPRITIAMRRLGVVIGPNRVYRLMQELGIRSLMGRRFKKPGTHVDYSQRPNLIKNHPIGTIWRADITYLELRPGTWVYLSTIFDQASKQIIAFNIGKEMASKLIIKTLLQALSRASKPTFLHSDMGSQYTSIAYEGLLKRHLIRHSYSKQGYPYDNGPLEAFHSLLKREFIFQTRFTSFEDLVLRVENYINWYNTERIRINEGHHHHHH”, for which the “soluble on expression in E. coli” value was “not soluble”.

As to “MSLKAVSEADIQAALKEGGTITVWAWEPTLKQVATDFEKEHPGVKVDLVNAGTNKDQYTALQNAISAKKGVPDVAQIEYYAMGQYALTKQLTDLKSFGADKLSAQFSPGPWNGVKAGSDGVYALPMDSGPMALFYNKKVFDKYDIKVPTTWAEYLDAARDLHKADPKAYITADNGDAGFATSMLWQAGSRPYTVDGTKVKIDFSDQGAKTFTETWQQLIDEKLLASVPAWTDEWYKGLGDGSIATLATGAWMPANLESGAKSASGDWRVAPMPQWKAGDKVSAENGGSALALPELGKNEALAYAFVEYANAGDGVQTRLKNGAFPATTADLQSTRFQDTAFPYFGGQKANKIFAESAADVPDDWSYLPYQVYANSVFNDTVGKAYVSGTTLAEGLESWQEASVKYDEEQGLPSRRKGIITITTDPNSSSVDKLAAALEHHHHHH”, the “soluble on expression in E. coli” value is on record as “soluble”.

For the sequence “MSLKGGEYLETAAKVDVVVVDKTGTLTTGRPELTDVEVIEPAYSQGEVLELAARAETASEHPLADAIIRGAQDRGLSTTLVEAAENITGRGIIANVDGQAVAVGSAELLDHEPDSTRILELNAEGKTAMFVGVNGHAIGIVAVADAVRSDSASAIESLHKAGIQVVMATGDAHRVAQNVASKLGVDEVYSELLPEQKLELVRDLQAAGKTVAMVGDGVNDTPALAAADIGVAMGVAGSPAAIETADIALMADRLPRLAHAVTLAKRTVRTMREGHHHHHH”, the “soluble on expression in E. coli” value is “soluble”.

Regarding “MSLKIIDFRLRPPAMGFLNARIYTRPDIRNRFTRQLGFEPAPSAEEKSLELMFEEMAAAGIEQGVCVGRNSSVLGSVSNADVAAVAKAYPDKFHPVGSIEAATRKEAMAQMQEILDLGIRIVNLEPGVWATPMHVDDRRLYPLYAFCEDNGIPVIMMTGGNAGPDITYTNPEHIDRVLGDFPDLTVVSSHGNWPWVQEIIHVAFRRPNLYLSPDMYLYNLPGHADFIQAANSFLADRMLFGTAYPMCPLKEYTEWFLTLPIKPDAMEKILHGNAERLLAQAGREGHHHHHH”, the “soluble on expression in E. coli” value is on record as “soluble”.

“MSLKIIIAPAKIMKLDRDSFPVQSTPEFLKKTRILEKFLKSRTRDQLETLWHASDKVVEQSLFQLKNMDLDTNLTPAILAFSGIQYQYMAPDLFTQPALDYIQKNLRILSGFYGMLRPFDGICPYRLELNTKMVGFRDYSLYHFWDEDIANSLFKEDQVVINLASKQYMRLVKPYLNSARRMITVDFQELKNDKWKTVGVHAKMARGEMVRFMAEKQIKNPADLRDFHDFDFQFVPEVSSDDHYIFRTDFDFTRHEGHHHHHH”: the “soluble on expression in E. coli” value is “soluble”.

On to “MSLKILGIETSCDETGVAIYDEEKGLIANQLYTQIALHADYGGVVPELASRDHIRKTAPLIKAALEEANLTASDIDGIAYTSGPGLVGALLVGATIARSLAYAWNVPAIGVHHMEGHLLAPMLDDNSPHFPFVALLVSGGHTQLVRVDGVGKYEVIGESIDDAAGEAFDKTAKLLGLDYPGGAALSRLAEKGTPNRFTFPRPMTDRAGLDFSFSGLKTFAANTVNQAIKNEGELIEQTKADIAYAFQDAVVDTLAIKCKRALKETGYKRLVIAGGVSANKKLRETLAHLMQNLGGEVFYPQPQFCTDNGAMIAYTGFLRLKQGQHSDLAIDVKPRWAMAELPAIEGHHHHHH”, for which the “soluble on expression in E. coli” value is listed as “soluble”.

Turning to “MSLKIVNITTQVESIELKTPFKTALRQTSHVEFVRVEVECDNGFVGIGEASATKVITGEDIYIILTSIASVEELFLNLTCEEALGALHTKCAIGSSAKASLDIAFVHLLSQEAKKPLYEYFGATDKSALKSDITISLNEADVMLNDAKKAFSNGMDILKIKVGSDILHAIDIVRKIAKELPECDILVDANQAWSFENTVLFIENMLNTPIKLIEQPVEAPNLDGLKKITELSHIPILADEAVFTLKDAKKVIEEKCADMINIKLMKCGGVSKAIEILEFARNREFKCMLGSMLEGPYSINMALHLAFAYRDVIEFVDLDSPLLYKEMPKELDFVFDGCEIKPLEGHHHHHH”, the “soluble on expression in E. coli” value is “soluble”.

With “MSLKKIGVLGMGYVGIPAAVLFADAPCFEKVLGFQRNSKSSGYKIEMLNRGESPLKGEEPGLEELIGKVVKAGKFECTPDFSRISELDAVTLAIQTPFANPKDLEPDFSALIDGIRNVGKYLKPGMLVVLESTITPGTTEGMAKQILEEESGLKAGEDFALAHAPERVMVGRLLKNIREHDRIVGGIDEASTKRAVELYSPVLTVGQVIPMSATAAEVTKTAENTFRDLQIAAINQLALYCEAMGINVYDVRTGVDSLKGEGITRAVLWPGAGVGGHCLTKDTYHLERGVKIGRGELDYPEGADSIYVLARKVNDFMPAHMYNLTVAALERLGKKMDGSKVAMLGWAFIKDSDDARNTPSEPYRDLCLKAGASVMVHDPYVVNYPGVEISDNLEEVVRNADAIVVLAGHSAYSSLKADWAKKVSAKANPVIIDGRNVIEPDEFIGKGFVYKGIGRGDKNSHKIKEGHHHHHH”, the “soluble on expression in E. coli” value is “soluble”.

In the case of “MSLKKITMIQTQKKVGRFNIYINNKYAFPVSESILIKYRLHKGQELDENLIEEIKLADDISKGYNAALNYLSYQLRTRKEVEDKLRSLDIHEDYISEIINKLIDLDLINDKNYAESYVRTMMNTSDKGPKVIKLNLSKKGIDDNIAEDALILYTDKLQVEKGVTLAEKLANRYSHDSYRNKQNKIKQSLLTKGFSYDIIDTIIQELDLIFDDEGHHHHHH”, the “soluble on expression in E. coli” value is recorded as “soluble”.

In the case of “MSLKLLIVENDRDTAAALTTSLVAQQFTVDTASDSRSALELAEATEYDLIVLDVMLPDENGIRLCRQLRTQNQQEPILLLTRKVNPADRIAGFEAGADDYITKPYELSELLARIRALLRRGSTVLTKVLCWGQLQLDPNNCEVMCQGKGLHLTPKEYKLLELFLRHPRRIFDRRTLLDRICSIDECPGEEAITTQIRGLRRKLQMAGLNSDPIETLYGLGYRLKSEGHHHHHH”, the “soluble on expression in E. coli” value was “not soluble”.
